From US9663815B2, “Cytosolically-active peroxidases as reporters for microscopy” (Massachusetts Institute of Technology, priority 2011, dated 2017)
Where a chain is given by its changes, count along the chain named. In names and notes the source's numbering stands.

Columns and labels:
HEK293T cells = assay: Amplex UltraRed labeling (resorufin fluorescence) of cells expressing peroxidase; assay type: cell-based
Experimental: The expression and activity of wild-type (wt) APX was tested using immunostaining and Amplex UltraRed, a fluorogenic peroxidase substrate, in three cellular compartments: cytosol, mitochondrial matrix, and endoplasmic reticulum (ER). APX was differentially expressed in each compartment using at least the constructs described in Table 3. For comparison, HRP was tested in the same locations. Activity was monitored through visualization of resorufin, the fluorescent product of Amplex UltraRed oxidation by HRP or APX (scheme in FIG. 7). […] When live cells were imaged immediately after Amplex UltraRed labeling, resorufin fluorescence was seen throughout the entire cell. After fixation, however, the majority of the resorufin diffused out of the cells, and resorufin fluorescence remained only in the compartment in which APX was expressed. (Note that Amplex UltraRed, a proprietary derivative of Amplex Red, was used rather than Amplex Red in this example).
Further, Amplex UltraRed labeling and immunostaining of wtAPX, APX^W41F, mAPX, and APEX was performed on transfected HEK293T cells. Amplex UltraRed labeling was performed for 6 minutes. All APX variants were expressed with a C-terminal nuclear export signal (NES, see Table 3). […]

HEK cells = assay: DAB staining of transfected cells (brightfield); assay type: cell-based; conditions: for DAB staining activity in mitochondrial matrix: mitochondrial matrix-targeted constructs, HEK cells
Experimental: Next, the activity of wt APX and mAPX was compared in mammalian cells.
To generate a monomeric APX with improved activity, the two mAPX mutations (K14D/E112K) were added to each of the activity-enhanced mutants. […] The sextuple mutant (K14D, E112K, W41F, D133A, T135F, K136F=mAPX−FFAF), was compared to mAPX+W41F within cells. HEK cells were transfected with constructs targeted to the mitochondrial matrix (Table 3), while COS-7 cells were transfected with constructs fused to the C-terminus of connexin 43 (Table 3). After fixation, the cells were treated with DAB and H2O2 to generate DAB polymer. […] After fixation, cells were stained with anti-Flag (for matrix) or anti-myc (for connexin) antibody to visualize peroxidase expression levels. […] Therefore mAPX+W41F (K14D/E112K/W41F) was selected, denoted as “APEX” (for Enhanced APX), as the optimized reporter for subsequent experiments.
A solution of 4% formaldehyde (freshly depolymerized from paraformaldehyde) with 2% glutaraldehyde in 10 mM phosphate buffered saline (PBS) was added to cells 24 hours after transfection. Cells were treated for 3 min at room temperature, then 30 min on ice. Cells were then washed 5×2 min using ice cold 10 mM PBS. Cells were blocked with 20 mM glycine for 5 min on ice. Cells were then washed 5×2 min with ice-cold 10 mM PBS. Cells were then treated with an ice-cold solution of DAB (0.5 mg/mL) and H2O2 (0.03%) in 10 mM PBS for 20 min. Cells were then washed 5×2 min with ice-cold 10 mM PBS. Cells were treated with 2% OsO4 in ice-cold 10 mM PBS for 30 min, then washed 5×2 min with ice-cold distilled deionized water. Cells were then placed under ice-cold 2% aqueous uranyl acetate for 24 hours.
Any cell displaying detectable GFP fluorescence was considered transfected. Contact sites between neighboring transfected cells were identified using DIC imaging. Gap junctions were identified as lines of GFP fluorescence unambiguously overlaying with the plasma membrane of two transfected cells based on DIC. DAB stain intensity for APX-NES variants was analyzed using SlideBook. Transfected cells were identified by nuclear YFP fluorescence. In each transfected cell, a representative DAB-stained region was encircled, and its average brightfield intensity was calculated. Background intensity, determined for each field of view by encircling a representative region in the cytosol of an untransfected cell, was subtracted out. The bar graph in FIG. 2c represents mean data from >60 transfected cells.

B1: wt APX: pea cytosolic ascorbate peroxidase (Pisum sativum), wild type, about 28 kD, dimeric (protein, listed as Pisum sativum)
chain: MGKSYPTVSPDYQKAIEKAKRKLRGFIAEKKCAPLILRLAWHSAGTFDSKTKTGGPFGTIKHQAELAHGANNGLDIAVRLLEPIKEQFPIVSYADFYQLAGVVAVEITGGPEVPFHPGREDKPEPPPEGRLPDATKGSDHLRDVFGKAMGLSDQDIVALSGGHTIGAAHKERSGFEGPWTSNPLIFDNSYFTELLTGEKDGLLQLPSDKALLTDSVFRPLVEKYAADEDVFFADYAEAHLKLSELGFAEA
HEK293T cells; expressed in cytosol, mitochondrial matrix and endoplasmic reticulum (ER)
  peroxidase activity toward Amplex UltraRed (resorufin): active in all contexts
HEK cells
  DAB staining activity in mitochondrial matrix: comparably active

B2: mAPX: double mutant K14D/E112K of pea APX (SEQ ID NO:1), monomeric (protein, listed as Pisum sativum)
chain: B1 chain with K14D, E112K
HEK293T cells; cytosol (NES), HEK293T, labeling 6 minutes
  activity toward Amplex UltraRed: less active than wt APX
HEK cells; expressed throughout the cytosol via NES fusion
  activity toward DAB (DAB stain): less active than wt APX
HEK cells
  DAB staining activity in mitochondrial matrix: comparably active
